Results published in publication PMC7862611, “Ribosome-bound Get4/5 facilitates the capture of tail-anchored proteins by Sgt2 in yeast” (Nature Communications, 2021).

T1: RNCs carrying the most N-terminal 100 residues of Pgk1 as a nascent chain (yeast (S. cerevisiae) | S. cerevisiae) (UniProt P00560)
T1 sequence (P00560 1-100, looked up): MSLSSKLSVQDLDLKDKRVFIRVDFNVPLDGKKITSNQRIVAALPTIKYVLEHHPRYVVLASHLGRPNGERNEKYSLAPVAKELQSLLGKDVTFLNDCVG

B1: signal recognition particle (SRP), followed by its 54 kDa subunit Srp54 (natural protein)
chain: MVLADLGKRINSAVNNAISNTQDDFTTSVDVMLKGIVTALLESDVNIALVSKLRNNIRSQLLSENRSEKSTTNAQTKKLIQKTVFDELCKLVTCEGSEEKAFVPKKRKTNIIMFVGLQGSGKTTSCTKLAVYYSKRGFKVGLVCADTFRAGAFDQLKQNAIRARIPFYGSYTETDPAKVAEEGINKFKKEKFDIIIVDTSGRHHQEEELFQEMIEISNVIKPNQTIMVLDASIGQAAEQQSKAFKESSDFGAIILTKMDGHARGGGAISAVAATNTPIIFIGTGEHIHDLEKFSPKSFISKLLGIGDIESLFEQLQTVSNKEDAKATMENIQKGKFTLLDFKKQMQTIMKMGPLSNIAQMIPGMSNMMNQVGEEETSQKMKKMVYVLDSMTKEELESDGRMFIEEPTRMVRVAKGSGTSVFEVEMILMQQQMMARMAQTATQQQPGAPGANARMPGMPNMPGMPNMPGMPNMPGMPKVTPQMMQQAQQKLKQNPGLMQNMMNMFGGGMGGGMGGGMPDMNEMMKMMQDPQMQQMAKQFGMG
B2: Get4/5-Atto390 (complex, yeast (S. cerevisiae))
chain 1: MVPAESNAVQAKLAKTLQRFENKIKAGDYYEAHQTLRTIANRYVRSKSYEHAIELISQGALSFLKAKQGGSGTDLIFYLLEVYDLAEVKVDDISVARLVRLIAELDPSEPNLKDVITGMNNWSIKFSEYKFGDPYLHNTIGSKLLEGDFVYEAERYFMLGTHDSMIKYVDLLWDWLCQVDDIEDSTVAEFFSRLVFNYLFISNISFAHESKDIFLERFIEKFHPKYEKIDKNGYEIVFFEDYSDLNFLQLLLITCQTKDKSYFLNLKNHYLDFSQAYKSELEFLGQEYFNIVAPKQTNFLQDMMSGFLGGSK
chain 2: MSTSASGPEHEFVSKFLTLATLTEPKLPKSYTKPLKDVTNLGVPLPTLKYKYKQNRAKKLKLHQDQQGQDNAAVHLTLKKIQAPKFSIEHDFSPSDTILQIKQHLISEEKASHISEIKLLLKGKVLHDNLFLSDLKVTPANSTITVMIKPNPTISKEPEAEKSTNSPAPAPPQELTVPWDDIEALLKNNFENDQAAVRQVMERLQKGWSLAK
modifications: ATTO-390-maleimide on the surface-exposed cysteine of the two cysteines present in Get4 (C177, 255)
notes: Get4, yeast; Get5, yeast; also called Get4/His6Get5; Get4_(2)Get5_(2) complex; copies: 2 + 2

How the values were obtained:
[1] = molecular target: T1, RNCs carrying the most N-terminal 100 residues of Pgk1 as a nascent chain (yeast (S. cerevisiae) | S. cerevisiae); test: pull-down; FLAG-tag pull-down of RNCs with N-terminally FLAG-tagged nascent chains made in yeast translation extracts (wild type, Δsrp54, without Get4/5, without Sgt2 or Get3; with or without 2 µM purified His6Get4/Get5), RNCs first pelleted through a sucrose cushion; immunoblot
[2] = molecular target: released Sec22 (yeast (S. cerevisiae)) (UniProt P22214); test: pull-down; FLAG-tag pull-down of radiolabelled ribosome-released FLAG-Sec22 from yeast translation reactions (wild type, Δget3 with or without 2 µM His6Get4/Get5, Δget3Δget4Δget5); immunoblot
[3] = molecular target: 80S ribosome (S. cerevisiae); test: fluorescence polarisation; fluorescence anisotropy; Get4/5-Atto390 held at 20 nM, 80S ribosomes added to 20–500 nM; 20 °C; 50 mM Tris/HCl pH 7.5, 70 mM NH4Cl, 30 mM KCl, 7 mM MgCl2; one site saturation binding fit; details: both partners purified

Sequence of released Sec22 (yeast (S. cerevisiae)) (P22214 whole entry): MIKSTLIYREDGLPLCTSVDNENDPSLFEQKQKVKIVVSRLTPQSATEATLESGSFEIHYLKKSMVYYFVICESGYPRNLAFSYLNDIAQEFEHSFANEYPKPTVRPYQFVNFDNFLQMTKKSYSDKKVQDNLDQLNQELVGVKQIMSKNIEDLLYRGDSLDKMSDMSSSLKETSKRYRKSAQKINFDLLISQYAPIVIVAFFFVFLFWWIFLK

Molecule	percent associated with RNCs [1] [%]	other results
Get4 (from UniProt Q12125 1-312) (natural protein)	2	–
Get5 (from UniProt Q12285 1-212) (natural protein)	2	–
Sgt2 (from UniProt Q12118 1-346) (natural protein)	–	fold change of binding with added m3 against no addition, Δget3 extract [2]: > 2 fold
B1	0.3	–
B2	–	Kd [3]: 110 nM
